Assay results: US20140335107A1 (published 2014)
Residue numbers refer to the chain shown, from its start. One block for each binder: values may come before it. Where no end group is shown, it is not given here.

Tests used:
[1] = target: T1, extracellular domain of human CD79b fused to Fc (huCD79becd-Fc) (UniProt P40259 29-159); assay: Biacore; IgG
T1 chain: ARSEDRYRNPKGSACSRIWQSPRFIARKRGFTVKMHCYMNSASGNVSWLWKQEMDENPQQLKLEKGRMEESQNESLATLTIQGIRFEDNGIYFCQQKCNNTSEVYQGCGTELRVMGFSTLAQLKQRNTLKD

[2] = target: T2, extracellular domain of human CD79b (huCD79becd) (UniProt P40259 29-159); assay: Biacore; IgG
T2 chain: T1 chain

[3] = target: T1, extracellular domain of human CD79b …; assay: Biacore; Fab
[4] = target: T2, extracellular domain of human CD79b …; assay: Biacore; Fab
[5] = target: T3, 16 amino acid peptide containing the epitope for MA79b (ARSEDRYRNPKGSACK) (also: biotinylated (site not given here)); assay: Biacore; IgG
T3 peptide: ARSEDRYRNPKGSACK

B1: murine anti-CD79b monoclonal antibody MA79b (antibody, V domains shown)
VH: EVQLQQSGAELMKPGASVKISCKATGYTFSSYWIEWVKQRPGHGLEWIGEILPGGGDTNYNEIFKGKATFTADTSSNTAYMQLSSLTSEDSAVYYCTRRVPVYFDYWGQGTSVTVSS
VL: DIVLTQSPASLAVSLGQRATISCKASQSVDYDGDSFLNWYQQKPGQPPKLFIYAASNLESGIPARFSGSGSGTDFTLNIHPVEEEDAATYYCQQSNEDPLTFGAGTELELKR
- Kd [1]: 2 nM
- Kd [2]: 4.7 nM

B4: hu MA79b H1-6 (IgG) (antibody, V domains shown)
VH: EVQLVESGGGLVQPGGSLRLSCAASGYPFTRYWINWVRQAPGKGLEWVGEILPGGGDTNYNEIFKGRFTISADTSKNTAYLQMNSLRAEDTAVYYCTRRVPVYFDYWGQGTLVTVSS
VL: DIQMTQSPSSLSASVGDRVTITCKASQSVDYDGDSFLNWYQQKPGKAPKLLIYAASNLESGVPSRFSGSGSGTDFTLTISSLQPEDFATYYCQQSNEDPLTFGQGTKVEIKR
- Kd [2]: 42 nM

B6: MA79b-grafted humanized antibody (huMA79b graft), IgG (antibody, V domains shown)
VH: B4 VH with P28T, T30S, R31S, N35E
VL: B4 VL
- Kd [2]: 261 nM

B7: MA79b-grafted humanized antibody variant L2/H3 (huMA79b L2/H3), IgG (antibody, V domains shown)
VH: B4 VH with P28T, T30S, R31S, N35E, V102I, Y103R, F104L
VL: B4 VL with S56R, N57K, E59G, S60R
- Kd [1]: 2 nM
- Kd [2]: 3 nM
- Kd [5]: 1 nM

More lines, now with the values ahead:

- Kd [3]: 200 nM
B2: MA79b (Fab) (antibody, V domains shown)
VH: B1 VH
VL: DIVLTQSPASLAVSLGQRATISCKASQSVDYDGDSFLNWYQKPGQPPKLFIYAASNLESGIPARFSGSGSGTDFTLNIHPVEEEDAATYYCQQSNEDPLTFGAGTELELKR

- Kd [3]: 44 nM
- Kd [4]: 39 nM
B3: huMA79b graft variant with HVR-L2 of SEQ ID NO: 22 (huMA79b L2-2), Fab (Fab, V domains shown)
VH: B4 VH with P28T, T30S, R31S, N35E
VL: B4 VL with S56R, N57K, E59G, S60R

- Kd [2]: 29 nM
B5: hu MA79b H3-10 (IgG) (antibody, V domains shown)
VH: B4 VH with P28T, T30S, R31S, N35E, V102I, Y103R, F104L
VL: B4 VL

- Kd [2]: 43 nM
B8: MA79b-grafted humanized antibody variant L2-2 (huMA79b L2-2), IgG (antibody, V domains shown)
VH: B4 VH with P28T, T30S, R31S, N35E
VL: B4 VL with S56R, N57K, E59G, S60R
